B1: Protein pop-1 (Caenorhabditis elegans), Q10666 (parent)
chain: MMADEELGDEVKVFRRDEDADDDPMISGETSEQQLADDKKEAVMEAELDGAGRNPSIDVLKSAFPKVEPMSPSFPGLMSHFSPGYSAAALPMFMPLFMNPYAAALRSPSLMFPMGAMSPTFPMFPPSPVYGAAIAAAAAKQHFENMAPLNMRAGHPMNQMGMPPYMHPSSMAPQNVDRRAQGGGKAKKDDHVKKPLNAFMWFMKENRKALLEEIGNNEKQSAELNKELGKRWHDLSKEEQAKYFEMAKKDKETHKERYPEWSARENYAVNKKKTKKRRDKSIPSENNDQKKCRARFGVNNTEMWCKFCKRKKKCEYATDRSGGSDITDSQDGRGTSGAYSSSSESPSPKANAGIALTTQQQQAAMMHTMLMQMRLGSTTGASTHVPSPLASSSAGRSPLDANASDSESDVEEEEDEQIDPTVMQQTHDMLMQESMCTI
partner: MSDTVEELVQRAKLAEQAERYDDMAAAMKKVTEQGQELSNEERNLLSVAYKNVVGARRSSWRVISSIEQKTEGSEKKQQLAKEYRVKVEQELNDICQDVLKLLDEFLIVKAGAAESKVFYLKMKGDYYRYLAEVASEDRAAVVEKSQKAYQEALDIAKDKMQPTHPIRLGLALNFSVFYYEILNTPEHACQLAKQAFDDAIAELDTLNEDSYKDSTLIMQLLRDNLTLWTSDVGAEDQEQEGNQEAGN

Variants of: B1
Settings: with 14331_caeel par-5, P41932

Variant | effect of a mutation on the interaction
MMADEELGDEVKVFRRDEDADDDPMISGETSEQQLADDKKEAVMEAELDGAGRNPSIDVLKSAFPKVEPMSPSFPGLMSHFSPGYSAAALPMFMPLFMNPYAAALRAPALMFPMGAMAPAFPMFPPAPVYGAAIAAAAAKQHFENMAPLNMRAGHPMNQMGMPPYMHPSSMAPQNVDRRAQGGGKAKKDDHVKKPLNAFMWFMKENRKALLEEIGNNEKQSAELNKELGKRWHDLSKEEQAKYFEMAKKDKETHKERYPEWSARENYAVNKKKTKKRRDKSIPSENNDQKKCRARFGVNNTEMWCKFCKRKKKCEYATDRSGGSDITDSQDGRGTSGAYSSSSESPSPKANAGIALTTQQQQAAMMHTMLMQMRLGSTTGASTHVPSPLASSSAGRSPLDANASDSESDVEEEEDEQIDPTVMQQTHDMLMQESMCTI [S107A;S109A;S118A;T120A;S127A] | disrupting interaction

Source: IntAct's records for PubMed 15066285
